Test results published in patent US20110293511A1, “SPECIFIC BINDING PROTEINS AND USES THEREOF” (priority 2009, published 2011).

B1: hu806: humanized (veneered) 806 antibody, human IgG1; SEQ ID NO:42 and SEQ ID NO:47 (antibody, V domains shown)
VH: MDWTWRILFLVAAATGVHSQVQLQESGPGLVKPSQTLSLTCTVSGYSISSDFAWNWIRQPPGKGLEWMGYISYSGNTRYQPSLKSRITISRDTSKNQFFLKLNSVTAADTATYYCVTAGRGFPYWGQGTLVTVSS
VL: MDWTWRILFLVAAATGVHSDIQMTQSPSSMSVSVGDRVTITCHSSQDINSNIGWLQQKPGKSFKGLIYHGTNLDDGVPSRFSGSGSGTDYTLTISSLQPEDFATYYCVQYAQFPWTFGGGTKLEIKR
B2: mAb1133: murine IgG2a monoclonal antibody, clone 1133; VH SEQ ID NO:32, VL SEQ ID NO:37 (antibody, listed as Mus musculus, V domains shown)
VH: DVQLQGSGPSLVKPSQSLSLTCTVTGYSITSDYAWNWIRQFPGNKLEWMGYISYSGNTRYNPSLRSRISITRDTSKNQFFLQLNSVTTEDTATYYCATAGRGFPYWGQGTLVTVSA
VL: DILMTQSPSSMSVSLGDTVNITCHSSQDINSNIGWLQQKPGKSFKGLIYHGTNLDDGVPSRFSGSGSGADYSLTISSLESEDFADYYCVQYGQFPWTFGGGTKLEIKR

Experiments:
A431 cells = experiment: ADCC assay; assay type: cell-based, human; conditions: 1 μg/mL; representative experiment
Procedure: PBMCs were isolated from healthy volunteer donor blood. Heparinized whole blood was fractionated by density centrifugation on Ficoll-Hypaque (ICN Biomedical Inc., Ohio, USA). PBMC fractions was collected and washed three times with RPMI^+ 1640 supplemented with 100 U/ml penicillin and 100 μg/ml streptomycin, 2 mM L-glutamine, containing 5% heat-inactivated FCS.
CDC and ADCC assays were performed by a modification of a previously published method (Nelson, D. L. et al. (1991) In: J. E. Colignan, A. M. Kruisbeek, D. D. Margulies, E. M. Shevach, and W. Strober (eds.), Current Protocols in Immunology, pp. 7.27.1. New York: Greene Publishing Wiley Interscience). Briefly, 5×10^6 target U87MG.de2-7 and A431 cells were labeled with 50 μCi^51Cr (Geneworks, Adelaide, Australia) per 1×10^6 cells and incubated for 2 hr at 37° C. The cells were then washed three time with PBS (0.05M, pH 7.4) and a fourth wash with culture medium. […]
In the first assay, labelled target cells were plated with the effector cells in 96-well “U” bottom microplates (NUNC, Roskilde, Denmark) at effector/target (E:T) cell ratios of 50:1. […] In both assays, micotitre plates were incubated at 37° C. for 4 hours, then 50 μl supernatant was harvested from each well and released ^51Cr was determined by gamma counting (Cobra II automated Gamma Counter, Canberra Packard, Melbourne, Australia). […]

A431 xenografts = experiment: s.c. xenograft therapy study; assay type: in vivo, nude mice; conditions: established; 6×1 mg IP
Procedure: Tumor cells (3×10^6) in […] of PBS were inoculated subcutaneously into both flanks of 4-6 week old female nude mice (Animal Research Centre, Western Australia, Australia). […] Treatment was continued for a total of 6 doses, 3 times per week for 2 weeks. In the established model, treatment was started when tumors had reached a mean volume of 65±6.42 mm^3 (U87MG.Δ2-7), 84±9.07 mm3 (U87MG), 73±7.5 mm^3 (U87MG.wtEGFR) or 201±19.09 mm^3 (A431 tumors). Tumor volume in mm^3 was determined using the formula […], where length was the longest axis and width the measurement at right angles to the length (Clark et al. (2000) Therapeutic efficacy of anti-Lewis (y) humanized 3S 193 radioimmunotherapy in a breast cancer model: enhanced activity when combined with Taxol chemotherapy. Clin. Cancer Res. 6, 3621-3628). Data was expressed as mean tumor volume±S.E. for each treatment group. Statistical analysis was performed at given time points using Student's t-test. Animals were euthanized when the xenografts reached an approximate volume of 1.5 cm^3 and the tumors excised for histological examination. This research project was approved by the Animal Ethics Committee of the Austin and Repatriation Medical Centre.
AG1478 (4-(3-Chloroanilino)-6,7-dimethoxyquinazoline) is a potent and selective inhibitor of the EGFR kinase versus HER2-neu and platelet-derived growth factor receptor kinase (Calbiochem Cat. No. 658552). […] The results are illustrated in FIG. 12. […] 400 μg AG1478 was administered at 0, 2, 4, 7, 9, and 11 days post xenograft.
With respect to “(iv),” different groups of mice received either 0.5 mg/injection of each mAb, or 0.25 mg/injection of each mAb.
Finally, the fourth group of mice, which had been inoculated with A431 cells, received injections as in groups I and III, at 8, 10, 12 and 14 days after inoculation. At the start, the average tumor size was 71 mm^3.
To establish xenografts, mice were injected subcutaneously into the right and left inguinal mammary line with 1×10^6 A431 adenocarcinoma cells or 1×10^6 U87MG.de2-7 glioma cells in 100 μl of PBS. Tumor volume (TV) was calculated by the formula […] where length was the longest axis and width the measurement at right angles to length. […] Therapy was administered on days 6, 8, 11, 13, 15 and 18 for A431, and days 4, 6, 8, 11, 13 and 15 for the U87MG.de2-7 cell lines respectively. Mean±SEM tumor volumes until termination of the experiments due to ethical considerations of tumor burden are presented in FIG. 91 for the A431 xenograft until day 25, and in FIG. 92 for U87MG.de2-7 xenografts until day 31.

xenograft A431 = experiment: immunohistochemical analysis on xenograft tumors; assay type: binding, human
Description: The murine fibroblast line NR6ΔEGFR was used as immunogen. Mouse hybridomas were generated by immunizing BALB/c mice five times subcutaneously at 2- to 3-week intervals, with 5×10^5-2×10^6 cells in adjuvant. Complete Freund's adjuvant was used for the first injection. Thereafter, incomplete Freund's adjuvant (Difco™, Voigt Global Distribution, Lawrence, Kans.) was used. Spleen cells from immunized mice were fused with mouse myeloma cell line SP2/0 (Shulman et al. (1978) Nature 276:269-270). Supernatants of newly generated clones were screened in hemadsorption assays for reactivity with cell line NR6, NR6wtEGFR, and NR6ΔEGFR and then analyzed by hemadsorption assays with human glioblastoma cell lines U87MG, U87MGwtEGFR, and U87ΔEGFR. Selected hybridoma supernatants were subsequently tested by western blotting and further analyzed by immunohistochemistry. Newly generated mAbs showing the expected reactivity pattern were purified.
Bound antibody was detected using the Dako Envision+ HRP detection system as per manufacturer's instructions. Sections were finally rinsed with water, counterstained with hematoxylin and mounted.

xenograft U87MGΔEGFR = experiment: immunohistochemical analysis on xenograft tumors; assay type: binding, human
[1] = biological target: T1, denatured soluble domain of the EGFR (sEGFR) (Homo sapiens, UniProt P00533); experiment: competition ELISA with biotinylated mAb806; assay type: binding; conditions: after unlabeled blocking antibody
T1 construct: sEGFR is the recombinant extracellular domain (amino acids 1-621) of the wild-type EGFR); host or cells: CHO cells
Procedure: Briefly, the denatured soluble domain of the EGFR (sEGFR) was coated on to ELISA plates. The unlabeled 124 or 1133 antibodies were then added across the plate in increasing concentrations.

| Molecule | ADCC cytotoxicity (A431 cells) [%] | xenograft growth versus PBS vehicle control (A431 xenografts) | Immunohistochemical staining (xenograft A431) | Immunohistochemical staining (xenograft U87MGΔEGFR) | Binding of biotin-labeled 806 [1] |
| --- | --- | --- | --- | --- | --- |
| B1 | 30 | marked reduction in A431 xenograft growth | – | – | – |
| B2 | – | – | pos. (predominantly basal | pos. | None |
